# Assay results: patent publication US20240133885A1 (UNIVERSITY OF SOUTHERN CALIFORNIA, published 2024)
# Where two headings read alike, the source gives them in different places.
# B1: CD8SP-hCD19-Bu12-(vL-vH)-GGSG-NLuc-AcV5 (scFv)
# scFv: not shown
# notes: Entry = whole insert incl. signal peptide; also called 021417-T05
# B2: FLAG-CD19-ECD-GGSG-NLuc-AcV5 (receptor)
# chain: not shown
# notes: Entry = whole insert incl; CD19 signal peptide, FLAG tag, linker, NLuc, AcV5; also called CD19-GGSG-NLuc-AcV5
# B3: SLAMF7-CS1-ECD-GGSG-NLuc-4xFlag-2xStreptag-8xHis-T2A-Pac (receptor)
# chain: not shown
# notes: Entry = whole insert incl; T2A-Pac; also called 062816-A01
# B4: CDH1-ECD-GGSG-NLuc-4xFlag-2xStreptag-8xHis-T2A-Pac (receptor)
# chain: not shown
# notes: Entry = whole insert incl; T2A-Pac; also called 062816-G02
# B5: CD8SP-CD19-4G7-Mlu-GSG-NLuc-AcV5 (scFv)
# scFv: not shown
# notes: Entry = whole insert incl. signal peptide; also called 021417-Z04
# B6: CD8SP-CD19-4G7-(vL-vH)-GGSG-NLuc-4xFLAG-x2STREP-8xHis-T2A-PAC (scFv)
# scFv: not shown
# notes: Entry = whole insert incl. signal peptide and T2A-PAC; also called 062916-C08
# Experiments:
# CD19 [1] = target: T1, CD19 (human, UniProt P15391 20-556); experiment: Luc assay, supernatant on HL60 cells (stated CD19-, CD20-, CD33+)
# T1 construct: whole, on cells; Endogenous antigen of the cell lines tested (RAJI stated CD19 positive); also called human CD19
# CD19 [2] = target: T1, CD19; experiment: Luc assay, supernatant on Raji cells (stated CD19+, CD20+, CD33-)
# [3] = target: T2, FMC63-(vL-vH)-Myc-BBz-T2A-Pac; experiment: NLuc assay, supernatant on CAR T cells
# T2 construct: Entry = whole construct incl; T2A-Pac; also called FMC63-CAR; CD19 (FMC63)-CAR
# [4] = target: T3, Luc90-(vL-vH)-MYC-CD28z-T2A-Pac; experiment: NLuc assay, supernatant on transfected 293FT cells
# T3 construct: Entry = whole construct incl; T2A-Pac; also called SLAMF7/CS1-specific CAR; 031915-F03
# [5] = target: T4, CD324-SC10-6-(vL-vH)-MYC-BBz-T2A-PAC; experiment: NLuc assay, supernatant on transfected 293FT cells
# T4 construct: Entry = whole construct incl; T2A-PAC; also called CDH1/CD324-specific CAR; 052516-B07
# [6] = target: T5, CD324-hSC10-17-(vL-vH)-MYC-BBz-T2A-PAC; experiment: NLuc assay, supernatant on transfected 293FT cells
# T5 construct: Entry = whole construct incl; T2A-PAC; also called CDH1/CD324-specific CAR; 052516-A07
# [7] = target: T6, CD200R-huDx182-(vL-vH)-Myc-BBz-T2A-PAC; experiment: NLuc assay, supernatant on transfected 293FT cells
# T6 construct: Entry = whole construct incl; T2A-PAC; also called CD200R-specific CAR
# [8] = target: T7, J6MO-(vL-vH)-MYC-28z-T2A-Pac; experiment: NLuc assay, supernatant on NK92MI cells expressing the CAR
# T7 construct: CAR on NK92MI cells; Entry = whole construct incl; T2A-Pac; also called BCMA-specific CAR; 031915-G02
# [9] = target: T3, Luc90-(vL-vH)-MYC-CD28z-T2A-Pac; experiment: NLuc assay, supernatant on 293FT cells transfected with the CAR
# [10] = target: T2, FMC63-(vL-vH)-Myc-BBz-T2A-Pac; experiment: as above
# [11] = target: T4, CD324-SC10-6-(vL-vH)-MYC-BBz-T2A-PAC; experiment: as above
# [12] = target: T5, CD324-hSC10-17-(vL-vH)-MYC-BBz-T2A-PAC; experiment: as above
# [13] = target: T2, FMC63-(vL-vH)-Myc-BBz-T2A-Pac; experiment: as above; remark: listed apart in the source
# CD19 [14] = target: T1, CD19; experiment: Luc assay, supernatant on BC1 cells
# CD19 [15] = target: T1, CD19; experiment: Luc assay, supernatant on RAJI cells
# CD19 [16] = target: T1, CD19; experiment: Luc assay, supernatant on BC-3 cells
# CD19 [17] = target: T1, CD19; experiment: Luc assay, supernatant on MM1S cells
# CD19 [18] = target: T1, CD19; experiment: Luc assay, supernatant on U266 cells
# CD19 [19] = target: T1, CD19; experiment: Luc assay, supernatant on BV173 cells
# CD19 [20] = target: T1, CD19; experiment: Luc assay, supernatant on JSC-1 cells
# CD19 [21] = target: T1, CD19; experiment: Luc assay, supernatant on BCBL-1 cells
binder,measurement,setting,value
B1,Mean Luc activity,CD19 [1],1610
same,Mean Luc activity,CD19 [2],358000
B2,fold NLuc value over uninfected or control CAR cells,[3],> 85 fold
same,binding result,[4],no binding
same,binding result,[5],no binding
same,binding result,[6],no binding
same,binding result,[7],no binding
same,binding result,[8],no binding
same,Mean Luc activity,[9],3830
same,Mean Luc activity,[10],237000
same,Mean Luc activity,[11],16400
same,Mean Luc activity,[12],5190
same,Mean Luc activity,[13],237000
B3,Mean Luc activity,[9],100000
B4,Mean Luc activity,[11],2.9e+06
same,Mean Luc activity,[12],2.02e+06
B5,Mean Luc activity,CD19 [1],4320
same,Mean Luc activity,CD19 [2],380000
B6,Mean Luc activity,CD19 [14],52300
same,Mean Luc activity,CD19 [15],397000
same,Luc activity,CD19 [16],6180
same,Luc activity,CD19 [17],10400
same,Luc activity,CD19 [18],6540
same,Luc activity,CD19 [19],121000
same,Luc activity,CD19 [20],13300
same,Luc activity,CD19 [21],14000
